Reference: patent US20190263932A1 (Eli Lilly, published 2019)

What was measured:
[1] = target: T1, recombinant human TrkA protein (human, UniProt P04629-2 34-407, limits assumed); assay: NGF-blocking ELISA on coated human TrkA, 100 nM btNGF
Procedure: (§1) Each row of a 96-well high-binding clear-bottom microtiter plate (Microlon, #655061) was coated overnight at 4° C. with 100 μL/well of recombinant human TrkA protein, diluted to 2 μg/mL in phosphate buffered saline, pH 7.2 (PBS). The next day, the coating solution was removed, and the plate was blocked with 150 μL of Casein-PBS (Thermo Scientific, #37528) for 1 hour at 25° C. with gentle shaking. The plate was then washed three times with PBS supplemented with 0.05% Tween20 (PBST). A two-fold dilution series of exemplified antibodies, along with IgG4 and IgG1 isotype control antibodies, was generated starting at 20 nM in Casein-PBS. 100 μL of the each dilution series sample was added to a well for 30 min at 37° C. with gentle shaking. The plate was then washed three times with PBST. […] The plate was then washed three times with PBST. A 1:3500 dilution of a 1 mg/mL stock solution of streptavidin-HRP (Thermo Scientific, #21130) in Casein-PBS was prepared and […] was added to each well for 20 min at 37° C. with gentle shaking. The plate was washed three times with PBST. […] The reaction was stopped by addition of 100 μL of 1M H₃PO₄ to each well. The absorbance at 450 nm (Abs450) was measured using a SpectraMax 340PC plate reader (Molecular Devices).

[2] = target: T1, recombinant human TrkA protein; assay: NGF-blocking ELISA on coated human TrkA, 100 nM btNGF; mAb 0.02 nM
Procedure: as §1

[3] = target: T1, recombinant human TrkA protein; assay: NGF-blocking ELISA on coated human TrkA, 100 nM btNGF; mAb 10 nM
Procedure: as §1

[4] = target: T1, recombinant human TrkA protein; assay: NGF-blocking ELISA on coated human TrkA, 100 nM btNGF; mAb 5 nM
Procedure: as §1

[5] = target: T1, recombinant human TrkA protein; assay: NGF-blocking ELISA on coated human TrkA, 100 nM btNGF; mAb 0.08 nM
Procedure: as §1

[6] = target: T1, recombinant human TrkA protein; assay: NGF-blocking ELISA on coated human TrkA, 100 nM btNGF; mAb 20 nM
[7] = target: T2, rat TrkA receptor expressed in transfected HEK293 cells (rat, UniProt P35739 33-799); assay: cell-based or functional assay
T2 sequence (P35739 33-799): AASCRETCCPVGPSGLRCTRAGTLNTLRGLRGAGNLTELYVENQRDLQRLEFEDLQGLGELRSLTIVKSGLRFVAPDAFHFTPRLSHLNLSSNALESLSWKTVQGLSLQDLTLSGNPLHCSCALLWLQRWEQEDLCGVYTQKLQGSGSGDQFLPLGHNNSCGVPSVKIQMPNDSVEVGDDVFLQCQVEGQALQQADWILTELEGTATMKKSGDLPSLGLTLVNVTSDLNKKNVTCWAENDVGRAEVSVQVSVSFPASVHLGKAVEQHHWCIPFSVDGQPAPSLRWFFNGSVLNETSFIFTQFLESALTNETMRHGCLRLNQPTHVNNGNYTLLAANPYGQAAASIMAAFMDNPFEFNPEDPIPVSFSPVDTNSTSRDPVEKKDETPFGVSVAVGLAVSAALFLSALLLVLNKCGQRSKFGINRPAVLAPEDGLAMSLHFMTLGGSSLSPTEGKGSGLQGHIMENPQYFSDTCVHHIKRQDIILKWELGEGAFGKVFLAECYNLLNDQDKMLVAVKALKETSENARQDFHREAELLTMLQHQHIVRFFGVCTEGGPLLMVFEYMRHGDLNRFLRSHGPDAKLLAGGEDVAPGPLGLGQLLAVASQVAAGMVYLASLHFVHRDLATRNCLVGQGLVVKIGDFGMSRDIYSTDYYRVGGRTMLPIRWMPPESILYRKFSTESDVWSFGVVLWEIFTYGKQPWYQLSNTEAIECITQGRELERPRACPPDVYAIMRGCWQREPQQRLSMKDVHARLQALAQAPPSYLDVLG

[8] = target: TrkA on rat NEUROSCREEN-1 cells (pheochromocytoma PC12 subclone) (rat, UniProt P35739 33-799); assay: cell-based or functional assay
Sequence of TrkA on rat NEUROSCREEN-1 cells (pheochromocytoma PC12 subclone) (P35739 33-799): as above

[9] = target: T2, rat TrkA receptor expressed in …; assay: cell-based or functional assay; remark: listed apart in the source
[10] = target: T1, recombinant human TrkA protein; assay: NGF-blocking ELISA on coated human TrkA, 100 nM btNGF; mAb 0.63 nM
Procedure: as §1

[11] = target: T3, Human TrkA Extracellular Domain Isoform 2 (33-408) (human, UniProt P04629 33-414); assay: SPR, mAb captured on Protein A chip, 37 C
T3 construct: SPR analyte; also called Human TrkA Isoform 2
T3 sequence (P04629 other isoform, or with tags, fused parts or gaps): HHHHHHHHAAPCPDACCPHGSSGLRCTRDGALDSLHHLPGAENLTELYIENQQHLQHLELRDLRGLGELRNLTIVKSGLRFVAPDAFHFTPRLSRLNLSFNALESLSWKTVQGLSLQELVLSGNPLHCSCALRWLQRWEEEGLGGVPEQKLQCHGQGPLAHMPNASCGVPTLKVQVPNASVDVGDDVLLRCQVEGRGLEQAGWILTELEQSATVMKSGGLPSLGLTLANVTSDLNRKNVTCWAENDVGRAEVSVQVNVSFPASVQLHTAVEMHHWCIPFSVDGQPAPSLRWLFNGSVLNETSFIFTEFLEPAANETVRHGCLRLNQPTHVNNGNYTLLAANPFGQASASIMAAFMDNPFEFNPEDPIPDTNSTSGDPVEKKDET
Procedure: (§2) The binding kinetics and affinity of exemplified antibodies to human, cynomolgus monkey, rat, mouse, and rabbit TrkA are determined as described below using a surface plasmon resonance assay on a BIACORE™ 8K instrument (GE Healthcare). Two different isoforms of human TrkA (isoform 1 and isoform 2) are evaluated along with human TrkB and human TrkC. […] All FC2 on all eight channels are set to capture approximately 89 response units (RU) of antibody at a flow rate of 10 μL/min. The antibody sample is prepared at 1 μg/mL by dilution into the running buffer. […] Before the analysis cycle, the chip is regenerated with 3 injections of glycine (pH ˜1.5) at 100 μL/min for a contact time of 15 seconds on FC1 and FC2 in order to clean the surface of the chip.

[12] = target: T4, Human TrkA Extracellular Domain Isoform 1 (33-414) (human, UniProt P04629 33-414); assay: SPR, mAb captured on Protein A chip, 37 C
T4 construct: SPR analyte; also called Human TrkA Isoform 1
T4 sequence (P04629 other isoform, or with tags, fused parts or gaps): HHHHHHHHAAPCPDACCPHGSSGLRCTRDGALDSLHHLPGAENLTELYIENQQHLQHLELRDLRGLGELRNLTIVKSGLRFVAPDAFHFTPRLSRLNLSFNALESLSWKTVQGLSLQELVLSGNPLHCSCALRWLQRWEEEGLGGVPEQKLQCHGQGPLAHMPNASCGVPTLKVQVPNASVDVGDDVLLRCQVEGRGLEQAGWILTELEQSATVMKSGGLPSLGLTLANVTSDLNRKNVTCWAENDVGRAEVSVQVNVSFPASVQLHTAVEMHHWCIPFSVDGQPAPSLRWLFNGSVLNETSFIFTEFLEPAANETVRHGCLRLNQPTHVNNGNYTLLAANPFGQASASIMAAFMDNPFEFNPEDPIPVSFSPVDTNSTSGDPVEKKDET
Procedure: as §2

[13] = target: T1, recombinant human TrkA protein; assay: NGF-blocking ELISA on coated human TrkA, 100 nM btNGF; mAb 0.31 (printed pM, two-fold series gives nM)
Procedure: as §1

[14] = target: T1, recombinant human TrkA protein; assay: NGF-blocking ELISA on coated human TrkA, 100 nM btNGF; mAb 1.25 nM
Procedure: as §1

[15] = target: T1, recombinant human TrkA protein; assay: NGF-blocking ELISA on coated human TrkA, 100 nM btNGF; mAb 0.16 nM
Procedure: as §1

[16] = target: T1, recombinant human TrkA protein; assay: NGF-blocking ELISA on coated human TrkA, 100 nM btNGF; mAb 2.5 nM
Procedure: as §1

[17] = target: T1, recombinant human TrkA protein; assay: NGF-blocking ELISA on coated human TrkA, 100 nM btNGF; mAb 0.04 nM
Procedure: as §1

T1 sequence (P04629 other isoform, or with tags, fused parts or gaps limits assumed): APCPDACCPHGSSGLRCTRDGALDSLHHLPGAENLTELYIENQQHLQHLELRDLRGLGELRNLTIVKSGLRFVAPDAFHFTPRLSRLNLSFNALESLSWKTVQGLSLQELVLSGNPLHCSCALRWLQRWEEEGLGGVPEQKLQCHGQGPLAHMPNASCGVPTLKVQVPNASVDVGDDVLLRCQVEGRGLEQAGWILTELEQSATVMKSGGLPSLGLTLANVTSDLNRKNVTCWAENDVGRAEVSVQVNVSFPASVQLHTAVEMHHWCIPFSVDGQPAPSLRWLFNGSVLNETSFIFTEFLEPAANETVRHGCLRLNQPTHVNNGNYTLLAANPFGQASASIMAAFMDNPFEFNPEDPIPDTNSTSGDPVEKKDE

IC50 [1] [nM] | Absorbance 450 nm [2] | Absorbance 450 nm [3] | Absorbance 450 nm [4] | Absorbance 450 nm [5] | Absorbance 450 nm [6] | % Max Inhibition, pTrkA [7] [%] | IC50 (nM), pTrkA [7] [nM] | pTrkA counts per second, NGF +0.1 pM mAb [7] [counts per second] | pTrkA counts per second, NGF +1 pM mAb [7] [counts per second] | pTrkA counts per second, NGF +10 pM mAb [7] [counts per second] | pTrkA counts per second, NGF +100 pM mAb [7] [counts per second] | pTrkA counts per second, NGF +1 nM mAb [7] [counts per second] | pTrkA counts per second, NGF +10 nM mAb [7] [counts per second] | pTrkA counts per second, NGF +100 nM mAb [7] [counts per second] | pTrkA counts per second, NGF +1 uM mAb [7] [counts per second] | % Max Stimulation of neurite outgrowth [8] [%] | IC50, inhibition of NGF-induced neurite outgrowth [8] [nM] | % Max stimulation, pTrkA [9] [%] | EC50 (nM), pTrkA [9] [nM] | Binder | further results
0.37 | 1.05 | 0.17 | 0.19 | 0.96 | 0.19 | 40 | 0.68 | 4.53e+06 | 4.06e+06 | 4.52e+06 | 3.79e+06 | 3.16e+06 | 2.43e+06 | 2.59e+06 | 1.93e+06 | 17 | 0.08 | 77 | 0.17 | mAb D (antibody, human IgG1, kappa, Human IgG1EN/Kappa) heavy: EVQLVESGGGLVKPGGSLRLSCAASGFTFSGVSINWVRQAPGKGLEWVSSETTSSGTIYYADSVKGRFTISRDNAKNSLYLQMNSLRAEDTAVYYCARSYYYGMDVWGQGTTVTVSSASTKGPSVFPLAPSSKSTSGGTAALGCLVKDYFPEPVTVSWNSGALTSGVHTFPAVLQSSGLYSLSSVVTVPSSSLGTQTYICNVNHKPSNTKVDKRVEPKSCDKTHTCPPCPAPEAEGAPSVFLFPPKPKDTLMISRTPEVTCVVVDVSHEDPEVKFNWYVDGVEVHNAKTKPREEQYNSTYRVVSVLTVLHQDWLNGKEYKCKVSNKALPSSIEKTISKAKGQPREPQVYTLPPSREEMTKNQVSLTCLVKGFYPSDIAVEWESNGQPENNYKTTPPVLDSDGSFFLYSKLTVDKSRWQQGNVFSCSVMHEALHNHYTQKSLSLSPGK light: DIVMTQTPLSSPVTLGQPASISCRSSQSLVHRAGNTYLSWLQQRPGQPPRLLIYKISNRFSGVPDRFSGSGAGTDFTLKISRVEAEDVGVYYCMQARQFPLTFGGGTKVEIKRTVAAPSVFIFPPSDEQLKSGTASVVCLLNNFYPREAKVQWKVDNALQSGNSQESVTEQDSKDSTYSLSSTLTLSKADYEKHKVYACEVTHQGLSSPVTKSFNRGEC | pTrkA counts per second, 0.1 pM mAb, no NGF [9]: 571000 counts per second; pTrkA counts per second, 1 pM mAb, no NGF [9]: 585000 counts per second; pTrkA counts per second, 10 pM mAb, no NGF [9]: 627000 counts per second; pTrkA counts per second, 100 pM mAb, no NGF [9]: 1.25e+06 counts per second; pTrkA counts per second, 1 nM mAb, no NGF [9]: 2.39e+06 counts per second; pTrkA counts per second, 10 nM mAb, no NGF [9]: 2.97e+06 counts per second; pTrkA counts per second, 100 nM mAb, no NGF [9]: 2.85e+06 counts per second; pTrkA counts per second, 1 uM mAb, no NGF [9]: 2.05e+06 counts per second; Absorbance 450 nm [10]: 0.38; Kd [11]: 4.9 nM; koff [11]: 0.0013 s⁻¹; kon [11]: 250000 M⁻¹ s⁻¹; Kd [12]: 4.4 nM; koff [12]: 0.0012 s⁻¹; kon [12]: 280000 M⁻¹ s⁻¹; Absorbance 450 nm [13]: 0.67; Absorbance 450 nm [14]: 0.19; Absorbance 450 nm [15]: 0.89; Absorbance 450 nm [16]: 0.16; Absorbance 450 nm [17]: 1
0.35 | 1.1 | 0.19 | 0.21 | 1.05 | 0.19 | 37 | 0.68 | 2.94e+06 | 3.38e+06 | 3.44e+06 | 3.7e+06 | 2.27e+06 | 2.23e+06 | 1.7e+06 | 1.88e+06 | 17 | 0.07 | 74 | 0.3 | mAb E (antibody, human IgG1, kappa, Human IgG1EN/Kappa) heavy: EVQLVESGGGLVKPGGSLRLSCAASGFTFSGVSINWVRQAPGKGLEWVSSETTSSGTIYYADSVKGRFTISRDNAKNSLYLQMNSLRAEDTAVYYCARSYYYGMDVWGQGTTVTVSSASTKGPSVFPLAPSSKSTSGGTAALGCLVKDYFPEPVTVSWNSGALTSGVHTFPAVLQSSGLYSLSSVVTVPSSSLGTQTYICNVNHKPSNTKVDKRVEPKSCDKTHTCPPCPAPEAEGAPSVFLFPPKPKDTLMISRTPEVTCVVVDVSHEDPEVKFNWYVDGVEVHNAKTKPREEQYNSTYRVVSVLTVLHQDWLNGKEYKCKVSNKALPSSIEKTISKAKGQPREPQVYTLPPSREEMTKNQVSLTCLVKGFYPSDIAVEWESNGQPENNYKTTPPVLDSDGSFFLYSKLTVDKSRWQQGNVFSCSVMHEALHNHYTQKSLSLSPGK light: DIVMTQTPLSSPVTLGQPASISCRSSQSLVHRQGNTYLSWLQQRPGQPPRLLIYKISNRFSGVPDRFSGSGAGTDFTLKISRVEAEDVGVYYCMQARQFPLTFGGGTKVEIKRTVAAPSVFIFPPSDEQLKSGTASVVCLLNNFYPREAKVQWKVDNALQSGNSQESVTEQDSKDSTYSLSSTLTLSKADYEKHKVYACEVTHQGLSSPVTKSFNRGEC | pTrkA counts per second, 0.1 pM mAb, no NGF [9]: 739000 counts per second; pTrkA counts per second, 1 pM mAb, no NGF [9]: 636000 counts per second; pTrkA counts per second, 10 pM mAb, no NGF [9]: 610000 counts per second; pTrkA counts per second, 100 pM mAb, no NGF [9]: 1.01e+06 counts per second; pTrkA counts per second, 1 nM mAb, no NGF [9]: 1.82e+06 counts per second; pTrkA counts per second, 10 nM mAb, no NGF [9]: 2.46e+06 counts per second; pTrkA counts per second, 100 nM mAb, no NGF [9]: 2.02e+06 counts per second; pTrkA counts per second, 1 uM mAb, no NGF [9]: 2.05e+06 counts per second; Absorbance 450 nm [10]: 0.41; Kd [11]: 5.2 nM; koff [11]: 0.0014 s⁻¹; kon [11]: 260000 M⁻¹ s⁻¹; Kd [12]: 4.8 nM; koff [12]: 0.0013 s⁻¹; kon [12]: 270000 M⁻¹ s⁻¹; Absorbance 450 nm [13]: 0.68; Absorbance 450 nm [14]: 0.25; Absorbance 450 nm [15]: 0.92; Absorbance 450 nm [16]: 0.19; Absorbance 450 nm [17]: 1.04
